Measured values reported in US20220073608A1 (JIANGSU HUAIYU PHARMACEUTICAL, published 2022).

Tests used:
[1] = biological target: T1, mouse SEMA4D, full length, on CHO-K1 cells (CHO-K1 mSEMA4D) (mouse, UniProt O09126 24-861); test: FACS, CHO-K1 mSEMA4D cells; Ab 0.0213 nM
T1 construct: whole, on cells; also called murine SEMA4D recombinant cells
T1 sequence (looked up): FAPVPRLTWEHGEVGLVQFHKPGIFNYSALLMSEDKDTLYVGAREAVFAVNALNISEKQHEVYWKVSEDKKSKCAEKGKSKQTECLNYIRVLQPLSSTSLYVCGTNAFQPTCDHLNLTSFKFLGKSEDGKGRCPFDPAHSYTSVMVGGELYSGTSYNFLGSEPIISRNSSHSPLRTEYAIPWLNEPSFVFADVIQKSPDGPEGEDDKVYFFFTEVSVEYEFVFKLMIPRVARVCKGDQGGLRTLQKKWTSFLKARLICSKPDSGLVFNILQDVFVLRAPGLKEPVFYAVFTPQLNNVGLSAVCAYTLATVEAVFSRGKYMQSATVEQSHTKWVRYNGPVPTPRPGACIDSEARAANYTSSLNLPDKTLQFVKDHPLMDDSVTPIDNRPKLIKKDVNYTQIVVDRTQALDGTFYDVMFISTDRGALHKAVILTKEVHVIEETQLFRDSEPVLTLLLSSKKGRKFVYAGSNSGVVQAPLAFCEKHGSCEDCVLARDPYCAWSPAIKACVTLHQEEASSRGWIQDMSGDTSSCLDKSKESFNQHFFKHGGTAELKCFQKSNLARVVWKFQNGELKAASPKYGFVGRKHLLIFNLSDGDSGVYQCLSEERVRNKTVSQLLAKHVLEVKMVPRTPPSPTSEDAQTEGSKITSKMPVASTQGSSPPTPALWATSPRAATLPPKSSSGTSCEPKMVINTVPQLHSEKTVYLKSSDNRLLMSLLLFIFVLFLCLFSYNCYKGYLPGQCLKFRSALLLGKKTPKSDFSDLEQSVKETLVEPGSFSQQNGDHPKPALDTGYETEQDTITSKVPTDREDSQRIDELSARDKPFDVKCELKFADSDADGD
Protocol: (§1) After the cells were counted, they were diluted with PBS to 2×10⁶ cells per milliliter. After washing, 100 μL of diluted and purified leading antibodies was added to each well and the plate was incubated for 1 hour on ice. […] Cells were washed 2 times by centrifugation with FACS buffer. The cells were suspended with 200 μL of FACS buffer, FACS (FACS Verse, purchased from BD) was used to detect and analyze the results.

[2] = biological target: T1, mouse SEMA4D, full length, on CHO-K1 …; test: FACS, CHO-K1 mSEMA4D cells; Ab 0.107 nM
Protocol: as §1

[3] = biological target: T2, monkey SEMA4D, full length, on CHO-K1 cells (CHO-K1 cSEMA4D) (monkey); test: FACS, CHO-K1 cSEMA4D cells; Ab 0.534 nM
T2 construct: whole, on cells; also called monkey SEMA4D recombinant cells
Protocol: as §1

[4] = biological target: T3, human SEMA4D, full length, on CHO-K1 cells (CHO-K1 hSEMA4D) (human, UniProt Q92854 22-862); test: FACS, CHO-K1 hSEMA4D cells; Ab 2.67 nM
T3 construct: whole, on cells; also called human SEMA4D recombinant cells
T3 sequence (looked up): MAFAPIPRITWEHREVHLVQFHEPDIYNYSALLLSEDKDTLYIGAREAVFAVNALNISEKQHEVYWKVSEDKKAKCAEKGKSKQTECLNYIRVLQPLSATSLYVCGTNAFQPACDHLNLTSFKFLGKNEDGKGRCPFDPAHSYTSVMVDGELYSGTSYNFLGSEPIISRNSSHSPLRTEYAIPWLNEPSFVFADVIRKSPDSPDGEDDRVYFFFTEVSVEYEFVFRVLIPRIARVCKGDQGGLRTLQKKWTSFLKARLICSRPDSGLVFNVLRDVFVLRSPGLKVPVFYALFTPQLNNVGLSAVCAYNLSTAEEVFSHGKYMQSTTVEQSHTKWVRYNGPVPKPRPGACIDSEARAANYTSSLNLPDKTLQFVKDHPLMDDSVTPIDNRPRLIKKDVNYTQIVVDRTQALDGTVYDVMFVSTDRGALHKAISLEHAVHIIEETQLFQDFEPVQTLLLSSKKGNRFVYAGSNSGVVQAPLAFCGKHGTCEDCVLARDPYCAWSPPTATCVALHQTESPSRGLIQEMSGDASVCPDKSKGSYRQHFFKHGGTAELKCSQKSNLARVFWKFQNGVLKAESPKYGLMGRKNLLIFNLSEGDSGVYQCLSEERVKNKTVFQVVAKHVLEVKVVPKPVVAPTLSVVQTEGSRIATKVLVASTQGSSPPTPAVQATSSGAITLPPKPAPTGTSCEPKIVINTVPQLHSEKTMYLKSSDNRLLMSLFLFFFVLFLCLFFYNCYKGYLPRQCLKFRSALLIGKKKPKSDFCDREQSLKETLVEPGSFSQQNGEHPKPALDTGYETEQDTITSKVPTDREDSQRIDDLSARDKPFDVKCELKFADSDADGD
Protocol: The medium was aspirated, the cells were washed once with PBS buffer (purchased from Invitrogen), and then treated with cell dissociation fluid (TrypLE™ Express Enzyme, purchased from Life technology), and the cells were collected. After the cells counted, the cells were washed once with PBS phosphate buffer, and diluted to 3×10⁶ cells per milliliter, and added to the 96-well FACS reaction plate as 100 μL per well. 2% (w/w) fetal calf serum was added to PBS phosphate buffer as FACS buffer, with which the cells were washed once by centrifugation at 2000 rpm 4° C. 100 μL of diluted and purified leading antibodies was added to each well and the plate was incubated for 1 hour on ice. […] Cells were washed 2 times by centrifugation with FACS buffer. The cells were suspended with 200 μL of FACS buffer, and FACS (FACS Verse, purchased from BD) was used to detect and analyze the results.

[5] = biological target: T2, monkey SEMA4D, full length, on CHO-K1 …; test: FACS, CHO-K1 cSEMA4D cells; Ab 0.00427 nM
Protocol: as §1

[6] = biological target: T2, monkey SEMA4D, full length, on CHO-K1 …; test: FACS, CHO-K1 cSEMA4D cells; Ab 0.000853 nM
Protocol: as §1

B1: 37F11F9 (antibody, V domains shown)
VH: EVQLQQSGPVLVKPGASVKMSCKASGYTFTDYYMNWVKQSHGKSLEWIGLINPYSGGSTFNQKFKAKATLTVDKSSSSAYMDLNSLTSEDSAVYYCARVGDGYYGVTHGMDYWGQGTSVTVSS
VL: DIVMTPSQKFMSTTVGDRVSITCKASQNVGTAVAWYQQKPGQSPTILIYSASNRYTGVPDRFTGSGSGTDFTLTISNMKSEDLADYFCQQYYIYPFTFAAGTKLELK
notes: Mouse monoclonal antibody purified from hybridoma supernatant on protein A
Which MFI [1] does the source give for B1 here?
Its MFI is 30.5.

What about the MFI [2] of the same binder?
Its MFI is 29.7.

And the MFI [3]?
Its MFI is 925.

And the MFI [4]?
The MFI was 2880.

What about the MFI [5] of the same binder?
Its MFI is 45.4.

What about the MFI [6] of the same binder?
Its MFI is 29.5.

B2: 32C8F10 (antibody, V domains shown)
VH: EVQLQQSGAELVRPGASVKLSCTASGFNIKDEYIHWVKQRPEQGLEWIGWIDPANGHTEYASRFQAKATITADTSSNTAYLQLSSLTSEDTAVYYCTTGDYDGFAYWGQGTLVTVST
VL: QIVLTQSPAIMSASPGEKVTISCSARSSVSYMYWYQQKPGSSPKPWIYRTSNLASGVPARFSGSGSGTSYSLTISSMEAEDAATYYCQHYHTYPYTFGGGTKLEIK
notes: as for B1
B2 was tested. Which MFI [1] did it give?
The MFI was 29.5.

And the MFI [2]?
Its MFI is 30.2.

And the MFI [3]?
Its MFI is 2930.

What about the MFI [4] of the same binder?
The MFI was 6170.

And the MFI [5]?
Its MFI is 97.6.

What about the MFI [6] of the same binder?
The MFI was 49.7.

B3: 31G10C5 (antibody, V domains shown)
VH: EVQLQQSGAELVRPGASVKLSCTASGFNIKDDYIHWVKQRPEQGLEWIGWIDPANGHIEYASNFQAKATITADTSSNTAYLQLSSLTSEDTAVYYCTTGDYDGFTYWGQGTLVTVST
VL: QIVLTQSPAIMSASPGEKVTISCSARSSVSYMYWYQQKPGSSPKPWIYRTSNLASGVPARFSGSGSGTSYSLTISSMEAEDAATYYCQHYHTYPYTFGGGTKLEIK
notes: as for B1
How did the MFI [1] turn out when B3 was run?
Its MFI is 29.6.

What about the MFI [2] of the same binder?
Its MFI is 29.6.

What about the MFI [3] of the same binder?
The MFI was 3490.

And the MFI [4]?
Its MFI is 5860.

What about the MFI [5] of the same binder?
The MFI was 152.

And the MFI [6]?
The MFI was 61.5.

B4: 31C11G2 (antibody, V domains shown)
VH: EVQLQQSGAELVRPGASVKLSCTASGFNIKDEYIHWVKQRPEQGLEWIGWIDPANGHTEYASRFQAKATITADTSSNTAYLQLSSLTSEDTAVYYCTTGDYDGFVYWGQGTLVTVST
VL: QIVLTQSPAIMSASPGEKVTIFCSARSSVSYMYWYQQKPGSSPKPWIYRTSNLASGVPARFSGSGSGTSYSLTISSMEAEDAATYYCQHYHTYPYTFGGGTKLEIK
notes: as for B1
How did the MFI [1] turn out when B4 was run?
The MFI was 30.8.

What about the MFI [2] of the same binder?
Its MFI is 30.6.

What about the MFI [3] of the same binder?
The MFI was 2980.

And the MFI [4]?
The MFI was 5970.

And the MFI [5]?
Its MFI is 139.

What about the MFI [6] of the same binder?
The MFI was 81.4.

B5: 42B7G2 (antibody, V domains shown)
VH: QVQLQQSGAELARPGASVKLSCKASGYTFTDYGISWVKQRTGQGLEWIGEIYLRNDNSYYNEKFKGKATLTADKSSNTAYMELRSLTSEDSAVYFCARWGDHGNNYEDAMDYWGQGTSVTVSS
VL: DIVLTQSPASLAMSLGKRATISCRASESVSIIGSNLIHWYQQKPGQPPKLLIYHASNLETGVPARFSGSGSRTDFTLTIDPVEEDDVAIYYCLQSRKVPYTFGGGTKLEIK
notes: as for B1
Which results are given for B5?
MFI [1]: 31.6; MFI [2]: 30.4; MFI [3]: 1690; MFI [4]: 3790; MFI [5]: 92.7; MFI [6]: 54.5

B6: 37C4F7 (antibody, V domains shown)
VH: EFQLQQSGPEVVKPGASVKISCKASGYSFTDYNMNWMKQSKGKSLEWIGVINPNYGTTTYNQNFKGKATLTVDQSSSTAYMQLNSLTSEDSAVYYCARDMYYVYAYYTMDYWGQGTSVTVSS
VL: DVVMTQTPLSLPVSLGDQASISCRSSQSLVHSNGHTYLHWYLQRPGQSPTLLIYKVSNRFSGVPDRFSGSGSGTDFTLKISRVEAEDLGVYFCSQGTHVPWTFGGGTKLEIK
notes: as for B1
How did the MFI [1] turn out when B6 was run?
The MFI was 30.8.

And the MFI [2]?
The MFI was 30.1.

And the MFI [3]?
The MFI was 760.

And the MFI [4]?
Its MFI is 2340.

What about the MFI [5] of the same binder?
Its MFI is 38.2.

What about the MFI [6] of the same binder?
Its MFI is 29.

B7: 38H2E3 (antibody, V domains shown)
VH: EFQLQQSGPEVVKPGASVKISCKASGYSFTDYNMNWMKQSKGKSLEWIGVISPDYGTTTYNQNFKDKATLTVDQSSSTAYMQLNSLTSEDSAVYYCAKDMYYVYAYYTMDYWGHGTSVTVSS
VL: DVVMTQTPLSLPVSLGDQASISCRSSQSLVHSNGHTYLHWYLQRPGQSPTLLIYKVSNRFSGVPDRVSGSGSGTDFTLKISRVEAEDLGVYFCSQGTHVPRTFGGGTKLEIK
notes: as for B1
B7 was tested. Which MFI [1] did it give?
The MFI was 30.1.

What about the MFI [2] of the same binder?
The MFI was 30.5.

What about the MFI [3] of the same binder?
The MFI was 601.

And the MFI [4]?
The MFI was 2370.

What about the MFI [5] of the same binder?
Its MFI is 35.

And the MFI [6]?
The MFI was 26.1.
